{"source": "patent US20170369590A1", "about": "(Genmab, published 2017)", "binders": {"B1": {"name": "HuMab 132 (antibody, V domains shown)", "VH": "QVQLVQSGAEVKKPGASVKVSCKASGYTFTSYGISWVRQAPGQGLEWMGWISAYNGNSNYVQKFQGRVTMTTDTTTSTAYMELRSLTSDDTAVYYCAREYSYDSGTYFYYGMDVWGQGTTVTVSS", "VL": "EIVLTQSPATLSLSPGERATLSCRASQSVSSYLAWYQQKPGQAPRLLIYDASNRATGIPARFSGSGSGTDFTLTISSLEPEDFAVYYCQQRSNWPMYTFGQGTKLEIK"}, "B2": {"name": "HuMab 153 (antibody, V domains shown)", "VH": "QVQLVESGGGVVQPGRSLRLSCAASGFTFSDYVIHWVRQAPGKGLEWVTVISYDGSNKYYADSVKGRFTISRDNSKNTLYLQMNSLSAEDTAMYYCARGGITGTTGVFDYWGQGTLVTVSS", "VL": "DIQMTQSPSSLSASVGDRVTITCRASQGISSWLAWYQQKPEKAPKSLIYDASSLQSGVPSRFSGSGYGTDFSLTISSLQPEDFAIYYCQQYKSYPITFGQGTRLEIK"}, "B3": {"name": "HuMab 098 (antibody, V domains shown)", "VH": "EVQLLESGGGLVQPGGSLRLSCAASGFTFSNYGMSWVRQAPGKGLEWVSAISGSAYSTYYADSVKGRFTISRDNSKNTLWLQMNSLRAEDTAVYYCAKAHYHGSGSYYTLFDYWGQGTLVTVSS", "VL": "B2 VL with D50A, Y67S, S72T, I85T, K92N, I96Y, R103K", "notes": "also called TH1014-098; PC1014-098"}}, "key": {"[1]": {"biological_target": "T1, human epidermal growth factor receptor 2 (HER2), membrane-bound on cells (human, UniProt P04626 23-1255)", "test": "cell-based or functional assay"}, "[2]": {"biological_target": "T2, HER2ECDHis (human, UniProt P04626 23-653, biotinylated in the cross-block ELISA (sites not given))", "T2 construct": "range 1-653; expressed in HEK-293F; also called soluble HER2; biotinylated HER2ECDHis", "test": "ELISA; competitor 127"}, "[3]": {"biological_target": "T1, human epidermal growth factor receptor …", "test": "cell-based or functional assay", "remark": "listed apart in the source"}, "[4]": {"biological_target": "T2, HER2ECDHis", "test": "ELISA; competitor pert", "method": "(§1) Next, the ELISA wells were washed with PBST (PBS supplemented with 0.05% Tween-20 [Sigma-Aldrich, Zwijndrecht, The Netherlands]) and blocked for one hour at room temperature (RT) with PBSTC (PBST supplemented 2% [v/v] chicken serum [Gibco, Paisley, Scotland]). The ELISA wells were then washed with PBST and incubated for one hour at RT with HER2ECDHis serially diluted in PBSTC (0.25-2 μg/mL in 2-fold dilutions). […] The plate was thereafter washed with PBST and incubated for one hour with 0.1 μg/mL Streptavidin-poly-HRP (Sanquin, Amsterdam, The Netherlands) diluted in PBST. After washing, the reaction was visualized through a 15 minutes incubation with 2,2′-azino-bis (3-ethylbenzothiazoline-6-sulfonic acid) (ABTS: one ABTS tablet diluted in 50 mL ABTS buffer (Roche Diagnostics, Almere, The Netherlands)) at RT protected from light. The colorization was stopped by adding an equal volume of oxalic acid (Sigma-Aldrich, Zwijndrecht, The Netherlands). Fluorescence at 405 nm was measured on a microtiter plate reader (Biotek Instruments, Winooski, USA).\n(§2) Each HER2 antibody was coated to the ELISA wells at the sub-optimal dose that was determined as described above. After blocking of the ELISA wells, the wells were incubated with the predetermined concentration of 1 μg/mL biotinylated HER2ECDHis in the presence or absence of an excess of a second (competitor) HER2 antibody. The ELISA was then performed as described above. […] Percentage competition was then determined as 100 minus the percentage of inhibition."}, "[5]": {"biological_target": "T2, HER2ECDHis", "test": "ELISA; competitor 153", "method": "as §1, §2"}, "[6]": {"biological_target": "T2, HER2ECDHis", "test": "ELISA; competitor 159", "method": "as §1, §2"}, "[7]": {"biological_target": "T2, HER2ECDHis", "test": "ELISA; competitor tras", "method": "as §1, §2"}, "[8]": {"biological_target": "T2, HER2ECDHis", "test": "ELISA; competitor 098", "method": "as §1, §2"}, "[9]": {"biological_target": "T2, HER2ECDHis", "test": "ELISA; competitor C1", "method": "as §1, §2"}, "[10]": {"biological_target": "T2, HER2ECDHis", "test": "ELISA; competitor 132", "method": "as §1, §2"}, "[11]": {"biological_target": "T2, HER2ECDHis", "test": "ELISA; competitor F5", "method": "as §1, §2"}, "[12]": {"biological_target": "T2, HER2ECDHis", "test": "ELISA; competitor 169", "method": "as §1, §2"}, "[13]": {"biological_target": "T2, HER2ECDHis", "test": "ELISA; competitor 025", "method": "as §1, §2"}, "[14]": {"biological_target": "T2, HER2ECDHis", "test": "ELISA; competitor 129", "method": "as §1, §2"}, "[15]": {"biological_target": "T2, HER2ECDHis", "test": "ELISA; competitor 050", "method": "as §1, §2"}, "[16]": {"biological_target": "T2, HER2ECDHis", "test": "ELISA; competitor 084", "method": "as §1, §2"}, "[17]": {"biological_target": "T2, HER2ECDHis", "test": "ELISA; competitor 091", "method": "as §1, §2"}, "[18]": {"biological_target": "T1, human epidermal growth factor receptor …", "test": "cell-based or functional assay", "remark": "listed apart in the source"}}, "note": "Residue numbers refer to the chain shown, from its start."}
{"binder": "B1", "values": [{"measurement": "% cells killed, AU565, anti-kappa-ETA'-conjugated", "setting": "[1]", "result": 61.6, "unit": "%"}, {"measurement": "EC50 of cell kill, AU565, anti-kappa-ETA'-conjugated", "setting": "[1]", "result": 0.0394, "unit": "µg/mL"}, {"measurement": "% binding vs no competitor", "setting": "[2]", "result": 30, "unit": "%"}, {"measurement": "EC50, fab-CypHer5E internalization, AU565", "setting": "[3]", "result": 0.0114, "unit": "µg/mL"}, {"measurement": "Maximal MFI, fab-CypHer5E internalization, AU565", "setting": "[3]", "result": 112000, "unit": "MFI"}, {"measurement": "% binding vs no competitor", "setting": "[4]", "result": 288, "unit": "%"}, {"measurement": "% binding vs no competitor", "setting": "[5]", "result": 41, "unit": "%"}, {"measurement": "% binding vs no competitor", "setting": "[6]", "result": 131, "unit": "%"}, {"measurement": "% binding vs no competitor", "setting": "[7]", "result": 353, "unit": "%"}, {"measurement": "% binding vs no competitor", "setting": "[8]", "result": 309, "unit": "%"}, {"measurement": "% binding vs no competitor", "setting": "[9]", "result": 422, "unit": "%"}, {"measurement": "% binding vs no competitor", "setting": "[10]", "result": 32, "unit": "%"}, {"measurement": "% binding vs no competitor", "setting": "[11]", "result": 379, "unit": "%"}]}
{"binder": "B2", "values": [{"measurement": "% binding vs no competitor", "setting": "[12]", "result": 111, "unit": "%"}, {"measurement": "% binding vs no competitor", "setting": "[13]", "result": 97, "unit": "%"}, {"measurement": "% cells killed, AU565, anti-kappa-ETA'-conjugated", "setting": "[1]", "result": 60.3, "unit": "%"}, {"measurement": "EC50 of cell kill, AU565, anti-kappa-ETA'-conjugated", "setting": "[1]", "result": 0.0323, "unit": "µg/mL"}, {"measurement": "% binding vs no competitor", "setting": "[2]", "result": 27, "unit": "%"}, {"measurement": "% binding vs no competitor", "setting": "[14]", "result": 106, "unit": "%"}, {"measurement": "EC50, fab-CypHer5E internalization, AU565", "setting": "[3]", "result": "~0.0149", "unit": "µg/mL"}, {"measurement": "Maximal MFI, fab-CypHer5E internalization, AU565", "setting": "[3]", "result": 87500, "unit": "MFI"}, {"measurement": "% binding vs no competitor", "setting": "[15]", "result": 103, "unit": "%"}, {"measurement": "% binding vs no competitor", "setting": "[4]", "result": 121, "unit": "%"}, {"measurement": "% binding vs no competitor", "setting": "[5]", "result": 28, "unit": "%"}, {"measurement": "% binding vs no competitor", "setting": "[6]", "result": 23, "unit": "%"}, {"measurement": "% binding vs no competitor", "setting": "[16]", "result": 107, "unit": "%"}, {"measurement": "% binding vs no competitor", "setting": "[7]", "result": 134, "unit": "%"}, {"measurement": "% binding vs no competitor", "setting": "[17]", "result": 102, "unit": "%"}, {"measurement": "% cells killed, A431, anti-kappa-ETA'-conjugated", "setting": "[18]", "result": 82.4, "unit": "%"}, {"measurement": "EC50 of cell kill, A431, anti-kappa-ETA'-conjugated", "setting": "[18]", "result": "~0.0101", "unit": "µg/mL"}, {"measurement": "% binding vs no competitor", "setting": "[8]", "result": 115, "unit": "%"}, {"measurement": "% binding vs no competitor", "setting": "[9]", "result": 257, "unit": "%"}, {"measurement": "% binding vs no competitor", "setting": "[10]", "result": 33, "unit": "%"}, {"measurement": "% binding vs no competitor", "setting": "[11]", "result": 96, "unit": "%"}]}
{"binder": "B3", "values": [{"measurement": "% binding vs no competitor", "setting": "[12]", "result": 102, "unit": "%"}, {"measurement": "% binding vs no competitor", "setting": "[13]", "result": 108, "unit": "%"}, {"measurement": "% cells killed, AU565, anti-kappa-ETA'-conjugated", "setting": "[1]", "result": 58.7, "unit": "%"}, {"measurement": "EC50 of cell kill, AU565, anti-kappa-ETA'-conjugated", "setting": "[1]", "result": 0.0121, "unit": "µg/mL"}, {"measurement": "% binding vs no competitor", "setting": "[2]", "result": 21, "unit": "%"}, {"measurement": "% binding vs no competitor", "setting": "[14]", "result": 107, "unit": "%"}, {"measurement": "EC50, fab-CypHer5E internalization, AU565", "setting": "[3]", "result": 0.0138, "unit": "µg/mL"}, {"measurement": "Maximal MFI, fab-CypHer5E internalization, AU565", "setting": "[3]", "result": 135000, "unit": "MFI"}, {"measurement": "% binding vs no competitor", "setting": "[15]", "result": 100, "unit": "%"}, {"measurement": "% binding vs no competitor", "setting": "[4]", "result": 104, "unit": "%"}, {"measurement": "% binding vs no competitor", "setting": "[5]", "result": 110, "unit": "%"}, {"measurement": "% binding vs no competitor", "setting": "[6]", "result": 9, "unit": "%"}, {"measurement": "% binding vs no competitor", "setting": "[16]", "result": 103, "unit": "%"}, {"measurement": "% binding vs no competitor", "setting": "[7]", "result": 107, "unit": "%"}, {"measurement": "% binding vs no competitor", "setting": "[17]", "result": 104, "unit": "%"}, {"measurement": "% cells killed, A431, anti-kappa-ETA'-conjugated", "setting": "[18]", "result": 87.2, "unit": "%"}, {"measurement": "EC50 of cell kill, A431, anti-kappa-ETA'-conjugated", "setting": "[18]", "result": 0.00165, "unit": "µg/mL"}, {"measurement": "% binding vs no competitor", "setting": "[8]", "result": 17, "unit": "%"}, {"measurement": "% binding vs no competitor", "setting": "[9]", "result": 125, "unit": "%"}, {"measurement": "% binding vs no competitor", "setting": "[10]", "result": 142, "unit": "%"}, {"measurement": "% binding vs no competitor", "setting": "[11]", "result": 96, "unit": "%"}]}
